Results: patent US20120316071A1 (published 2012)

Molecular target: T1, Recombinant Human DLL4 (delta-like protein 4) (human, UniProt Q9NR61 27-524)
T1 construct: also called rHuman DLL4; Delta-like 4
Experiment: ELISA, DLL4 coated on plate, Fab at 100 nM

Row | Binder | ELISA Signal-blank (100 nM Fab)
1 | Fab VH5-51_IGHD5-18*01>3_IGHJ4*01 G100K/G104T G24T/S28R/G35V & V3-4_IGLJ1*01 V91L/S96P T53F (Fab, V domains shown, Fab expressed in E. coli; heavy chain vector adds CH1 with His6 and Flag tags, light chain vector adds lambda CL; also called H:KT TRV & L:LP T53F) VH: EVQLVQSGAEVKKPGESLKISCKTSGYRFTSYWIVWVRQMPGKGLEWMGIIYPGDSDTRYSPSFQGQVTISADKSISTAYLQWSSLKASDTAMYYCARRKYSYTYDYFDYWGQGTLVTVSS VL: QTVVTQEPSFSVSPGGTVTLTCGLSSGSVSTSYYPSWYQQTPGQAPRTLIYSFNTRSSGVPDRFSGSILGNKAALTITGAQADDESDYYCLLYMGPGISYVFGTGTKVTVL | 0.15
2 | Fab VH5-51_IGHD5-18*01>3_IGHJ4*01 G100K/G104T G24T/S28R/G35V & V3-4_IGLJ1*01 V91L/S96P T53H (Fab, V domains shown, Fab expressed in E. coli; heavy chain vector adds CH1 with His6 and Flag tags, light chain vector adds lambda CL; also called H:KT TRV & L:LP T53H) VH: EVQLVQSGAEVKKPGESLKISCKTSGYRFTSYWIVWVRQMPGKGLEWMGIIYPGDSDTRYSPSFQGQVTISADKSISTAYLQWSSLKASDTAMYYCARRKYSYTYDYFDYWGQGTLVTVSS VL: QTVVTQEPSFSVSPGGTVTLTCGLSSGSVSTSYYPSWYQQTPGQAPRTLIYSHNTRSSGVPDRFSGSILGNKAALTITGAQADDESDYYCLLYMGPGISYVFGTGTKVTVL | 0.14
3 | Fab VH5-51_IGHD5-18*01>3_IGHJ4*01 G100K/G104T G24T/S28R/G35V & V3-4_IGLJ1*01 V91L/S96P T53I (Fab, V domains shown, Fab expressed in E. coli; heavy chain vector adds CH1 with His6 and Flag tags, light chain vector adds lambda CL; also called H:KT TRV & L:LP T53I) VH: EVQLVQSGAEVKKPGESLKISCKTSGYRFTSYWIVWVRQMPGKGLEWMGIIYPGDSDTRYSPSFQGQVTISADKSISTAYLQWSSLKASDTAMYYCARRKYSYTYDYFDYWGQGTLVTVSS VL: QTVVTQEPSFSVSPGGTVTLTCGLSSGSVSTSYYPSWYQQTPGQAPRTLIYSINTRSSGVPDRFSGSILGNKAALTITGAQADDESDYYCLLYMGPGISYVFGTGTKVTVL | 0.3
4 | Fab VH5-51_IGHD5-18*01>3_IGHJ4*01 G100K/G104T G24T/S28R/G35V & V3-4_IGLJ1*01 V91L/S96P T53K (Fab, V domains shown, Fab expressed in E. coli; heavy chain vector adds CH1 with His6 and Flag tags, light chain vector adds lambda CL; also called H:KT TRV & L:LP T53K) VH: EVQLVQSGAEVKKPGESLKISCKTSGYRFTSYWIVWVRQMPGKGLEWMGIIYPGDSDTRYSPSFQGQVTISADKSISTAYLQWSSLKASDTAMYYCARRKYSYTYDYFDYWGQGTLVTVSS VL: QTVVTQEPSFSVSPGGTVTLTCGLSSGSVSTSYYPSWYQQTPGQAPRTLIYSKNTRSSGVPDRFSGSILGNKAALTITGAQADDESDYYCLLYMGPGISYVFGTGTKVTVL | 0.12
5 | Fab VH5-51_IGHD5-18*01>3_IGHJ4*01 G100K/G104T G24T/S28R/G35V & V3-4_IGLJ1*01 V91L/S96P T53L (Fab, V domains shown, Fab expressed in E. coli; heavy chain vector adds CH1 with His6 and Flag tags, light chain vector adds lambda CL; also called H:KT TRV & L:LP T53L) VH: EVQLVQSGAEVKKPGESLKISCKTSGYRFTSYWIVWVRQMPGKGLEWMGIIYPGDSDTRYSPSFQGQVTISADKSISTAYLQWSSLKASDTAMYYCARRKYSYTYDYFDYWGQGTLVTVSS VL: QTVVTQEPSFSVSPGGTVTLTCGLSSGSVSTSYYPSWYQQTPGQAPRTLIYSLNTRSSGVPDRFSGSILGNKAALTITGAQADDESDYYCLLYMGPGISYVFGTGTKVTVL | 0.18
6 | Fab VH5-51_IGHD5-18*01>3_IGHJ4*01 G100K/G104T G24T/S28R/G35V & V3-4_IGLJ1*01 V91L/S96P T53N (Fab, V domains shown, Fab expressed in E. coli; heavy chain vector adds CH1 with His6 and Flag tags, light chain vector adds lambda CL; also called H:KT TRV & L:LP T53N) VH: EVQLVQSGAEVKKPGESLKISCKTSGYRFTSYWIVWVRQMPGKGLEWMGIIYPGDSDTRYSPSFQGQVTISADKSISTAYLQWSSLKASDTAMYYCARRKYSYTYDYFDYWGQGTLVTVSS VL: QTVVTQEPSFSVSPGGTVTLTCGLSSGSVSTSYYPSWYQQTPGQAPRTLIYSNNTRSSGVPDRFSGSILGNKAALTITGAQADDESDYYCLLYMGPGISYVFGTGTKVTVL | 0.15
7 | Fab VH5-51_IGHD5-18*01>3_IGHJ4*01 G100K/G104T G24T/S28R/G35V & V3-4_IGLJ1*01 V91L/S96P T53P (Fab, V domains shown, Fab expressed in E. coli; heavy chain vector adds CH1 with His6 and Flag tags, light chain vector adds lambda CL; also called H:KT TRV & L:LP T53P) VH: EVQLVQSGAEVKKPGESLKISCKTSGYRFTSYWIVWVRQMPGKGLEWMGIIYPGDSDTRYSPSFQGQVTISADKSISTAYLQWSSLKASDTAMYYCARRKYSYTYDYFDYWGQGTLVTVSS VL: QTVVTQEPSFSVSPGGTVTLTCGLSSGSVSTSYYPSWYQQTPGQAPRTLIYSPNTRSSGVPDRFSGSILGNKAALTITGAQADDESDYYCLLYMGPGISYVFGTGTKVTVL | 0.39
8 | Fab VH5-51_IGHD5-18*01>3_IGHJ4*01 G100K/G104T G24T/S28R/G35V & V3-4_IGLJ1*01 V91L/S96P T53Q (Fab, V domains shown, Fab expressed in E. coli; heavy chain vector adds CH1 with His6 and Flag tags, light chain vector adds lambda CL; also called H:KT TRV & L:LP T53Q) VH: EVQLVQSGAEVKKPGESLKISCKTSGYRFTSYWIVWVRQMPGKGLEWMGIIYPGDSDTRYSPSFQGQVTISADKSISTAYLQWSSLKASDTAMYYCARRKYSYTYDYFDYWGQGTLVTVSS VL: QTVVTQEPSFSVSPGGTVTLTCGLSSGSVSTSYYPSWYQQTPGQAPRTLIYSQNTRSSGVPDRFSGSILGNKAALTITGAQADDESDYYCLLYMGPGISYVFGTGTKVTVL | 0.11
9 | Fab VH5-51_IGHD5-18*01>3_IGHJ4*01 G100K/G104T G24T/S28R/G35V & V3-4_IGLJ1*01 V91L/S96P T53S (Fab, V domains shown, Fab expressed in E. coli; heavy chain vector adds CH1 with His6 and Flag tags, light chain vector adds lambda CL; also called H:KT TRV & L:LP T53S) VH: EVQLVQSGAEVKKPGESLKISCKTSGYRFTSYWIVWVRQMPGKGLEWMGIIYPGDSDTRYSPSFQGQVTISADKSISTAYLQWSSLKASDTAMYYCARRKYSYTYDYFDYWGQGTLVTVSS VL: QTVVTQEPSFSVSPGGTVTLTCGLSSGSVSTSYYPSWYQQTPGQAPRTLIYSSNTRSSGVPDRFSGSILGNKAALTITGAQADDESDYYCLLYMGPGISYVFGTGTKVTVL | 0.18
10 | Fab VH5-51_IGHD5-18*01>3_IGHJ4*01 G100K/G104T G24T/S28R/G35V & V3-4_IGLJ1*01 V91L/S96P T53V (Fab, V domains shown, Fab expressed in E. coli; heavy chain vector adds CH1 with His6 and Flag tags, light chain vector adds lambda CL; also called H:KT TRV & L:LP T53V) VH: EVQLVQSGAEVKKPGESLKISCKTSGYRFTSYWIVWVRQMPGKGLEWMGIIYPGDSDTRYSPSFQGQVTISADKSISTAYLQWSSLKASDTAMYYCARRKYSYTYDYFDYWGQGTLVTVSS VL: QTVVTQEPSFSVSPGGTVTLTCGLSSGSVSTSYYPSWYQQTPGQAPRTLIYSVNTRSSGVPDRFSGSILGNKAALTITGAQADDESDYYCLLYMGPGISYVFGTGTKVTVL | 0.29
11 | Fab VH5-51_IGHD5-18*01>3_IGHJ4*01 G100K/G104T G24T/S28R/G35V & V3-4_IGLJ1*01 V91L/S96P T53Y (Fab, V domains shown, Fab expressed in E. coli; heavy chain vector adds CH1 with His6 and Flag tags, light chain vector adds lambda CL; also called H:KT TRV & L:LP T53Y) VH: EVQLVQSGAEVKKPGESLKISCKTSGYRFTSYWIVWVRQMPGKGLEWMGIIYPGDSDTRYSPSFQGQVTISADKSISTAYLQWSSLKASDTAMYYCARRKYSYTYDYFDYWGQGTLVTVSS VL: QTVVTQEPSFSVSPGGTVTLTCGLSSGSVSTSYYPSWYQQTPGQAPRTLIYSYNTRSSGVPDRFSGSILGNKAALTITGAQADDESDYYCLLYMGPGISYVFGTGTKVTVL | 0.22
